As usually defined, the koff is the rate constant with which the complex falls apart. Higher therefore signals fast dissociation. As usually defined, the Kd is a measure of binding affinity in units of concentration.

We go through 3 molecules from publication PMC12416549 (2024).

What all share (test): SPR
For assay [1], the target named is T1, TNFR2 (UniProt P20333 23-212).
T1 chain: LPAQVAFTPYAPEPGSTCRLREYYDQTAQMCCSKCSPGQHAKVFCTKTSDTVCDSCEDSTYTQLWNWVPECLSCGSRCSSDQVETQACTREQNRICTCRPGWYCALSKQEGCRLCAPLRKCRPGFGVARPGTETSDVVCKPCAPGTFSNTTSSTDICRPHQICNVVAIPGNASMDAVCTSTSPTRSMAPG

For assay [2], the target named is TNFR1_mb1.
Assay [3] addresses TNFR1_mb2.
In assay [4] the target is OX40_mb1.

B1: TNFR2_mb1 (designed binder)
chain: LNPEQVAKIGAAIDAGRKYLDAKIEEAKKTLTLRTAQALLVIRSQYERAVDTLFTDPSAAEKELAATLATIDRLLKEHPELAAEIKAFIRSTMAEIRALLAASLAA
As to B1, the off-rate constant (koff) in assay [1] stood at 0.00277 s⁻¹.

B2: TNFR1 (protein)
chain: LVPHLGDREKRDSVCPQGKYIHPQNNSICCTKCHKGTYLYNDCPGPGQDTDCRECESGSFTASENHLRHCLSCSKCRKEMGQVEISSCTVDRDTVCGCRKNQYRHYWSENLFQCFNCSLCLNGTVHLSCQEKQNTVCTCHAGFFLRENECVSCSNCKKSLECTKLCLPQIENVKGTEDSGTT
In assay [2], B2 registered a Kd of 29 nM and a dissociation rate constant (koff) of 0.134 s⁻¹. In assay [3], this molecule registered a Kd of 24.5 nM and an off-rate constant (koff) of 0.0773 s⁻¹.

B3: OX40 (protein)
chain: LHCVGDTYPSNDRCCHECRPGNGMVSRCSRSQNTVCRPCGPGFYNDVVSSKPCKPCTWCNLRSGSERKQLCTATQDTVCRCRAGTQPLDSYKPGVDCAPCPPGHFSPGDNQACKPWTNCTLAGKHTLQPASNSSDAICEDRDPPATQPQETQGPPARPITVQPTEAWPRTSQGPSTRPVEVPGGRA
On to B3, for which, in assay [4], the equilibrium dissociation constant (Kd) is 30 nM and the koff came out at 0.033 s⁻¹.
